The text below walks through data of publication PMC2174359 (The Journal of Cell Biology, 2000).

This assay concerns the target Sec13/31p complex (S. cerevisiae, UniProt Q04491 1-297; P38968 1-1273). Nature of the assay: co-sedimentation.

Chain of Sec13/31p complex (Q04491 whole entry, chain 1 of 2): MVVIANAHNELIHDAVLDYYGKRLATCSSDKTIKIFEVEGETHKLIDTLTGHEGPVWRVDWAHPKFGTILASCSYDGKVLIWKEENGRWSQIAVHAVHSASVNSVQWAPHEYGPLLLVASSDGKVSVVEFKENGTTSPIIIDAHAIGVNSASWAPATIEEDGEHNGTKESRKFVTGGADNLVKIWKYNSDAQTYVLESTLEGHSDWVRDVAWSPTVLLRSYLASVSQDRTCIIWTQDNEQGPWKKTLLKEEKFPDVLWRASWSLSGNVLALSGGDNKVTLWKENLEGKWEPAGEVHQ
Chain of Sec13/31p complex (P38968 whole entry, chain 2 of 2): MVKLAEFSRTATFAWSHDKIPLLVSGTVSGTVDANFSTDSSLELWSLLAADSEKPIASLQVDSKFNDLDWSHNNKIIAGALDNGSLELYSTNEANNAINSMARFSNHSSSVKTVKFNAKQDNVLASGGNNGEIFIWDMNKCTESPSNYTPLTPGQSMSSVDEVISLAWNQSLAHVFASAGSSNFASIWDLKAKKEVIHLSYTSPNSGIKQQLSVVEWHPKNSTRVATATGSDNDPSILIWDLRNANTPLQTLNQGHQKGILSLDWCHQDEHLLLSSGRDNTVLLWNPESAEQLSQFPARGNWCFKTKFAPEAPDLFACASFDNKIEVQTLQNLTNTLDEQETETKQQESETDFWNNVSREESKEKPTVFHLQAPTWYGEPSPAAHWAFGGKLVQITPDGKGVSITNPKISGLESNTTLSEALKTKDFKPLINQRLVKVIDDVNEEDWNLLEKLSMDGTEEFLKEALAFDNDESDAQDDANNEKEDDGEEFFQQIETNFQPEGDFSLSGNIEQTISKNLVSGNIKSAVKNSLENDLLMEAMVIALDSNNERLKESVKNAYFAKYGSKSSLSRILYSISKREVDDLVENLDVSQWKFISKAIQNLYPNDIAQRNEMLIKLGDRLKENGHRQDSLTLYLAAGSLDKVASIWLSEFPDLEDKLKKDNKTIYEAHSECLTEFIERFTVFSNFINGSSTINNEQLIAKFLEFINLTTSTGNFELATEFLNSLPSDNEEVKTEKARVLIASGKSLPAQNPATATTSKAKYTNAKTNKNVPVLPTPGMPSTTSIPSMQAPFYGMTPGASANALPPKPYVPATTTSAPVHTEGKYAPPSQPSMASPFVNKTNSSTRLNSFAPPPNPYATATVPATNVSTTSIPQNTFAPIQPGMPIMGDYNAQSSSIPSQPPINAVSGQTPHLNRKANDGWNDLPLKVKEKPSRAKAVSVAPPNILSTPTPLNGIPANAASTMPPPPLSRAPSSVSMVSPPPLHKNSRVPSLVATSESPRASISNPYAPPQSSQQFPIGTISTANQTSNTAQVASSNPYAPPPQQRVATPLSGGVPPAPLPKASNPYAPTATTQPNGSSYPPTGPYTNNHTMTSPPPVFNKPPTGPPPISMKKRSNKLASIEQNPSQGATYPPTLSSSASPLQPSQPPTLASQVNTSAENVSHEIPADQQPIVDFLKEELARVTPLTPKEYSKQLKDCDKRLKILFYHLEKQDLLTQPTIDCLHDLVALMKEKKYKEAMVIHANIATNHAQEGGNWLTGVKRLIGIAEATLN

B1: Lst1p, His6-tagged (LST1-His6) (natural protein, S. cerevisiae, UniProt P38810 1-929, looked up)
chain: MSQQNILAASVSALSLDESTVHTGGASSKKSRRPHRAYHNFSSGTVPTLGNSPYTTPQLNQQDGFQQPQAFTPKQFGGFNNGSGSVMSTPVMVSQERFGASEASSPYGQSMLDMTAPQPTSHIVPTQRFEDQAQYLQRSFETCRDSVPPLPTTQFYCVDQGSCDPHLMSLSMYNIPESEHLRAATKLPLGLTIQPFSTLTPNDAEVPTIPLPMDGTPLRCRRCRAYANPKFQFTYDSSVICNICRVKMQVPGEHFAPMGPNGQRSDLNEKSELLHGTVDFLVPSIYNAIQEKELLPLHYVFLIDVSLLANENGSSLAMVEGVRSCIEYISDFQPNCEVAIIVYDNKLRFFNLRPDLDNAQEYIVSELDDVFLPFYNGLFVKPGNSMKIINDTLIKISGYISTDKYSHVPQVCYGSALQAAKLALDTVTGGQGGKIICSLNSLPTIGNGNLSLKRDNAHIAHVKCDNGFYKKLASDFLKSYISLDLYVTNAGFIDMATVGHPVEMTSGILKYYPHFQQETDAFTLVNDMVTNVSNIVGYQALLKVRCSTGLSVEQYYCDSSDNTDHDPIIPVLTRDTTLDVLLKYDSKIKTGTDVHFQTALLYTDIDGVRKVRSINTSGAVSNNIREIFKFINQNPVMRIMIKDVIKTLGDCDFVKIRRLIDDKMVEILTQYRGLVSSNSSTQLILPDSIKTLPAYMLAFEKSELMKPNAQSTRGNERIYDLLKYDSLNSAQLCYKLYPQIVPFHVLLEETDLTFYDANDKLLQINSSSINNLSVRASHSNFINGGCYLIFQGDTIYLWFNENTNRMLLQDLLSVDESLPVSQISLFSGTLPETGTSINQKASNVIKNWQQVVNKSSLPLVLLRPNVDQYYSNVMSQLLCEDKTVNRIESYDNYLVIMHKKIQEKLQKDDFIKVSTAATHENIHQKFVQF
As to B1, the binding result is “binds”.
